Measured values taken from article PMC5446404.

Biological target: recombinant human fortilin (Strep-tag II), biotinylated (human) (UniProt P13693)
Experiment: BLI
Conditions: domain or fragment

Sequence of recombinant human fortilin (Strep-tag II), biotinylated (human) (P13693 whole entry): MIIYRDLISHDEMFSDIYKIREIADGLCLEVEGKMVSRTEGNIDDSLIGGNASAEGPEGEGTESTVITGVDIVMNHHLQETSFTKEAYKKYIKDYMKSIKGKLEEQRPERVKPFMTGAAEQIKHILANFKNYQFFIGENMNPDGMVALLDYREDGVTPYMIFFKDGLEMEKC
Sequence of GST-IRE1α-L (aa 1-70) (O75460 19-70): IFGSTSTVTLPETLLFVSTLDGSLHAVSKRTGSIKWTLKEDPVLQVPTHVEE

Kd: 18 mM
Substance: GST-IRE1α-L (aa 1-70) (from UniProt O75460 19-70)
